Where a chain is given by its changes, count along the chain named. Values belong to the binder of their own block, whether it stands above or below them.
Assays:
cynomolgus monkey ABCC1 [1] = target: T1, cynomolgus monkey ABCC1 (UniProt Q864R9 1-1531); test: FACS cell binding
[2] = target: T2, human ATP Binding Cassette Subfamily C Member 1 (ABCC1) (UniProt P33527 1-1531); test: FACS cell binding
cynomolgus monkey ABCC1 [3] = target: T1, cynomolgus monkey ABCC1; test: FACS titration on C6-cC1 cells; C6 cells
cynomolgus monkey ABCC1 [4] = target: T1, cynomolgus monkey ABCC1; test: FACS cell binding; remark: listed apart in the source
[5] = target: T2, human ATP Binding Cassette Subfamily C …; test: FACS cell binding; remark: listed apart in the source
cynomolgus monkey ABCC1 [6] = target: T1, cynomolgus monkey ABCC1; test: FACS titration on C6 cells
[7] = target: T2, human ATP Binding Cassette Subfamily C …; test: FACS titration on C6 cells
[8] = target: T2, human ATP Binding Cassette Subfamily C …; test: FACS titration on H69AR cells
cynomolgus monkey ABCC1 [9] = target: T1, cynomolgus monkey ABCC1; test: FACS titration on C6-cC1 cells
[10] = target: T2, human ATP Binding Cassette Subfamily C …; test: FACS titration on C6-hC1 cells
cynomolgus monkey ABCC1 [11] = target: T1, cynomolgus monkey ABCC1; test: FACS titration on C6 cells; C6 cells
[12] = target: T2, human ATP Binding Cassette Subfamily C …; test: FACS titration on C6 cells; remark: listed apart in the source
cynomolgus monkey ABCC1 [13] = target: T1, cynomolgus monkey ABCC1; test: FACS titration on C6-cC1 cells; remark: listed apart in the source
[14] = target: T2, human ATP Binding Cassette Subfamily C …; test: FACS titration on C6-hC1 cells; remark: listed apart in the source

T1 sequence (Q864R9 whole entry): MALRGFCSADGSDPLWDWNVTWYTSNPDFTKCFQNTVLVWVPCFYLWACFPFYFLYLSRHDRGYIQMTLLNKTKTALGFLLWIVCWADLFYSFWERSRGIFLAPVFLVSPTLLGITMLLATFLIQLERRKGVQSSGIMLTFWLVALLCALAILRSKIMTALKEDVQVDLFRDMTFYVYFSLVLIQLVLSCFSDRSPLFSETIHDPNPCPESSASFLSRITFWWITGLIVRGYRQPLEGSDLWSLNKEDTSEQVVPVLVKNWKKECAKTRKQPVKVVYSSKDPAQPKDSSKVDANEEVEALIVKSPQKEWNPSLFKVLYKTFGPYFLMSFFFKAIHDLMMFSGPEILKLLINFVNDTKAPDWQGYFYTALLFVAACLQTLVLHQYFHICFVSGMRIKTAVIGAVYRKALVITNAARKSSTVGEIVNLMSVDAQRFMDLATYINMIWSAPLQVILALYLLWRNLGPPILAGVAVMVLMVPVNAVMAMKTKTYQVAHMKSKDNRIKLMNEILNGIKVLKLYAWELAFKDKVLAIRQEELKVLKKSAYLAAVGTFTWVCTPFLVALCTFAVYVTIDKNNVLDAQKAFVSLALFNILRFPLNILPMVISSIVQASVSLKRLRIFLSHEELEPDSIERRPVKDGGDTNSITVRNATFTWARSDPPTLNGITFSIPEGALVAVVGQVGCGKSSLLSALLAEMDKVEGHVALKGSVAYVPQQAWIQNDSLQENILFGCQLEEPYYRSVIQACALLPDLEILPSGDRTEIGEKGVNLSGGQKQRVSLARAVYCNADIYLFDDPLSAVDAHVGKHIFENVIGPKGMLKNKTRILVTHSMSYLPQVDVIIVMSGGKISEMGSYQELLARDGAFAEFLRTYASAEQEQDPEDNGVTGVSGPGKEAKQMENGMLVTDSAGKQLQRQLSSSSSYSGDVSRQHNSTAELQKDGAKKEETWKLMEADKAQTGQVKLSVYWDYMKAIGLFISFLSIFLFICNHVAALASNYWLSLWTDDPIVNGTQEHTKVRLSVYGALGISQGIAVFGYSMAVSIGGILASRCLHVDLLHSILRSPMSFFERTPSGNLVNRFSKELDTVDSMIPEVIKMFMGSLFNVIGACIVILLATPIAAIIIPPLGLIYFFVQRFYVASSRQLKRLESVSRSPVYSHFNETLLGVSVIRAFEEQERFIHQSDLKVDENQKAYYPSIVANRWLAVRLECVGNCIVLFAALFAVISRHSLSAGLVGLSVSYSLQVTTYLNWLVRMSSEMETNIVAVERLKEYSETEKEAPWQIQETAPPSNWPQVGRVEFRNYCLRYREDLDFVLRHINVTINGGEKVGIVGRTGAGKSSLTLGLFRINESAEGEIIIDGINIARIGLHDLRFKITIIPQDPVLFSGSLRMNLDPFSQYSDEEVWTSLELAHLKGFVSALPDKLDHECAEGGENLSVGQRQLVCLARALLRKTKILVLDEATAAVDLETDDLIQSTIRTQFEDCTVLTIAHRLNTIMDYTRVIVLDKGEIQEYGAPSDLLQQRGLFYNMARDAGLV

B1: C1.844.hu21 (antibody, V domains shown)
VH: EVQLVESGGGLIQPGGSLRLSCAVSGFSLTSNGVIWVRQPPGKGLEWIAAISSGGNIYYNSGLKSRLTISRDTSKNTVYLQMNSLRAEDTAVYYCTRARGTTTAYVMDAWGQGTLVTVSS
VL: DIVMTQSPDSLAVSLGERATINCKSSQSLLYSVNQKNYLAWYQQKPGQSPKLLIYWASTRQSGVPDRFSGSGSGTDFTLTISSLQAEDVAVYYCQQYYDTLMKMFGAGTKLELK
Kd (cynomolgus monkey ABCC1 [1]): 83 nM
Kd [2]: 103 nM
Kd (cynomolgus monkey ABCC1 [3]): 11 nM

B2: C1.861.hu41 (antibody, V domains shown)
VH: EVQLQESGPGLVKPSETLSLTCTVSGFSLTSSGVTWVRQPPGKGLEWIAAISSGGNIYYNSAVKSRLTISRDTSKNQVSLKLSSVTAADTAVYYCTRARGTTTAYVMDAWGQGTTVTVSS
VL: DVQLTQSPSSLSASVGDRVTITCKSSQSLLYSGNQKNYLAWYQQKPGKSPKLLIYWASTRQSGVPSRFSGSGSGTDFTLTISSLQPEDVATYYCQQYYDVLMNMFGGGTKLEIK
Kd (cynomolgus monkey ABCC1 [1]): 64 nM
Kd [2]: 156 nM

B4: C1.861.hu61 (antibody, V domains shown)
VH: B1 VH with N32S, I35T, G62A, L63V, Y94F, L115T
VL: B2 VL
Kd (cynomolgus monkey ABCC1 [1]): 135 nM
Kd [2]: 218 nM

B5: C1.851.hu15 (antibody, V domains shown)
VH: EVQLQESGPGLVKPSETLSLTCTVSGFSLTNNGVSWIRQPPGKGLEWIAAISSGGNIYYNSAFKSRLTISRDTSKNQVSLKLSSVTAADTAVYYCARHRGYYGYNWGYFDYWGQGTLVTVSS
VL: DVVMTQAPSSLSASLGERISLTCRASQDIYGSLNWFQQKPDGTIKLLIYGTSSLDSGVPKRFSGSRSGSDYSLTISSLESEDFADYYCLQYASSPYTFGGGTKLEIK
Kd (cynomolgus monkey ABCC1 [4]): 210 nM
Kd [5]: 119 nM

B6: C1.851.hu12 (antibody, V domains shown)
VH: B5 VH
VL: DIQLTQSPSSLSASVGDRVTITCKGSQNINNYLAWYQQKPGKAPKLLIYKTNSLQTGIPSRFSGSGSGTDYTLTISSLQPEDFATYYCYQYNNGYTFGQGTKLEIK
Kd (cynomolgus monkey ABCC1 [4]): 181 nM
Kd [5]: 153 nM

B8: C1.835 (antibody, V domains shown)
VH: EVQLLESGPGLVQPSQTLSLTCTVSGFSLTNNGVSWVRQPPGKGLEWVAAMSSGGNIYYNSAFKSRLSISRHTSKSQVLLKMNSLQTEDTAMYFCARHRGYYGYNWGYFDYWGQGVMVTVSS
VL: NIQLTQSPSLLSASVGDRVTLSCKGSQNIYNYLAWYQQKLGEAPKLLIYKTNSLQTDIPSRFSGSGSGTDYTLTISSLHSEDLATYYCCQYNNGYTFGAGTKLELK
Kd (cynomolgus monkey ABCC1 [6]): 575 nM
Kd [7]: 144 nM

B10: C1.863 (antibody, V domains shown)
VH: B8 VH with L4R, L5K, V48I, M51I, N56S, H72I
VL: B8 VL with L4M, N52S, T56A, D57G, G68D, L105I
Kd (cynomolgus monkey ABCC1 [9]): 27.3 nM
Kd [10]: 11.7 nM

B11: C1.827 (antibody, V domains shown)
VH: B8 VH with L5V, V48I, M51I, S53N, Y59H, F63L, H72N, S74A, V116A, M117S
VL: B8 VL with L4V, D57G
Kd (cynomolgus monkey ABCC1 [6]): 67.3 nM
Kd [7]: 134 nM

B12: C1.861 (antibody, V domains shown)
VH: EVQLKESGPGLVQPSQTLSLTCTVSGFSLTSNGVTWVRQPPGKGLEWIAAISSGGNIYYNSAVKSRLSISRDTSKSQVFLKMNSLQTEDTAIYFCTRARGTTTAYVMDAWGQGASVTVSS
VL: DVVLTQSPSSLAVSAGETVTINCKSSQSLLYSGNQKNYLAWYQQKPGQSPKLLIYWASTRQSGVPDRFIGSGSGTDFTLTISSVQAEDLAIYYCQQYYDVLMNMFGAGTKLEIK
Kd (cynomolgus monkey ABCC1 [9]): 28 nM
Kd [10]: 14.7 nM
Kd (cynomolgus monkey ABCC1 [11]): 60.1 nM

B14: C1.505 (antibody, V domains shown)
VH: EVQLTESGPGLVQPSQTLSLTCTVSGFSLTSNGVSWVRLPPGKGLEWIAAISSGGNIYYNSALKSRLSISRDTSKSQVFLKMNSLQTEDTAIYFCTRERGWNYPGITNGYYFDYWGQGASVTVSS
VL: DIVLTQSPSLLSASVGDRVILSCKAGQKINNYLAWYQQKLGEAPKLLIYNANSLQTGIPSRFSGSGSGTDYTLTISSLQPEDVATYFCQQYNSWYTFGAGTKLEIK
Kd [12]: 81.2 nM
Kd [7]: 35.2 nM
Kd [8]: 7.1 nM

B16: C1.831.hu41 (antibody, V domains shown)
VH: EVQLQESGPGLVKPSETLSLTCTVSGFSLTSQGVSWVRQPPGKGLEWIAAISSGGNIYYNSVLKSRLTISRDTSKNQVSLKLSSVTAADTAVYYCTRERGWNYPFITSGYYFDYWGQGTLVTVSS
VL: B6 VL with G25A, S26G, K50N, T51A, Y89Q, N93S, G94W
Kd (cynomolgus monkey ABCC1 [1]): 20 nM
Kd [2]: 21 nM

Continued, in another order:

Kd (cynomolgus monkey ABCC1 [1]): 37 nM
Kd [2]: 38 nM
B3: C1.861.hu21 (antibody, V domains shown)
VH: B1 VH with I35T, G62A, L63V, Y94F, L115T
VL: B2 VL
Kd (cynomolgus monkey ABCC1 [3]): 11 nM

Kd (cynomolgus monkey ABCC1 [4]): 2030 nM
Kd [5]: 148 nM
B7: C1.851.hu14 (antibody, V domains shown)
VH: B5 VH
VL: DVVMTQTPLSLPVSLGDQASISCRSSQSIVHSNGNTYLEWYLQKPGQSPKLLIYKVSNRFSGVPDRFSGSGTGTDFTLKISRVEAEDLGVYYCFQGSHVPRTFGGGTKLEIK

Kd [8]: 4.3 nM
Kd [10]: 7.8 nM
B9: C1.787a (antibody, V domains shown)
VH: B8 VH with L5T, N31S, V48I, M51I, N56S, I57T, K81N, G103W, Y104S
VL: B8 VL with Y30N, D57G, I75L, N93D
Kd (cynomolgus monkey ABCC1 [9]): 27.6 nM

Kd [12]: 6.5 nM
Kd (cynomolgus monkey ABCC1 [6]): 2.7 nM
Kd [7]: 1.9 nM
Kd [8]: 2.5 nM
Kd [14]: 12.7 nM
Kd [10]: 3.7 nM
Kd (cynomolgus monkey ABCC1 [11]): 19.1 nM
B13: C1.773 (antibody, V domains shown)
VH: EIQLAQSGPELVKPGASVKMSCKASGYSFIGYFMNWVKQSHGKSLEWIGRINPYNGDTFYNQKFKGKATLTVDKSSSTAHMELRSLTSEDSALYYCTRSGWGYDVYSFDYWGQGTLVTVSS
VL: DIQMTQTPSSLSASLGDRVTISCRASQDISNYLNWYQQKPDGTVKLLIYYTSRLHSGVPSRFSGSGSGTDYSLTISNLEQEDIATYFCQQGNTLPWTFGGGTKLEIK
Kd (cynomolgus monkey ABCC1 [9]): 4.6 nM
Kd (cynomolgus monkey ABCC1 [13]): 5.9 nM
Kd (cynomolgus monkey ABCC1 [3]): 4 nM

Kd (cynomolgus monkey ABCC1 [6]): 8.7 nM
Kd [7]: 11.4 nM
B15: C1.831 (antibody, V domains shown)
VH: B14 VH with L39Q, A62V, N83S, L85V, G105F, A119V, S120M
VL: B14 VL with D1E, V3M, I20T, K28N

Kd (cynomolgus monkey ABCC1 [1]): 27 nM
Kd [2]: 21 nM
B17: C1.831.hu11 (antibody, V domains shown)
VH: B16 VH with Q32N, S108N
VL: B6 VL with G25A, S26G, K50N, T51A, Y89Q, N93S, G94W
Kd (cynomolgus monkey ABCC1 [3]): 11 nM

Reference: patent US20230272117A1 (published 2023)
